# Test results reported in the supplement of paper PMC10567573.
# B1: RPS21 (parent)
# chain: AEVSWEPGRREGCDICAGKAGCPI
# B2: RHOBTB3 (parent)
# chain: DSCCPAGIFQAMCLLICAEMYQVS
# Variants of: B1
# Assay: protein stability index of a GFP-peptide fusion (GPS, HEK-293T) (PSI 1-6); higher = more stable
# Conditions: c terminus: a fixed tail appended
# 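Note: lentivirally expressed fusions sorted by FACS into six bins by GFP to DsRed ratio, PSI derived from sequencing read proportions per bin multiplied by bin number.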
row,Variant,protein stability index
1,AEVSWEPGRREGCDICAGKAGCPS,3.79
2,AEVSWEPGRREGCDICAGKAGCPE,4.76
3,AEVSWEPGRREGCDICAGKAGCPT,3.96
4,AEVSWEPGRREGCDICAGKAGCPC,5.83
5,AEVSWEPGRREGCDICAGKAGCPG,3.41
6,AEVSWEPGRREGCDICAGKAGCPA,4.48
7,AEVSWEPGRREGCDICAGKAGCPH,5.43
8,AEVSWEPGRREGCDICAGKAGCPY,2.54
9,AEVSWEPGRREGCDICAGKAGCPV,3.19
10,AEVSWEPGRREGCDQCAGKAGCPI,3.46
11,AEVSWEPGRREGCDGCAGKAGCPI,4.06
12,AEVSWEPGRREGCDVCAGKAGCPI,3.53
13,AEVSWEPGRREGCDHCAGKAGCPI,4.36
14,AEVSWEPGRREGCDRCAGKAGCPI,2.96
15,AEVSWEPGRREGCDSCAGKAGCPI,4.14
16,AEVSWEPGRREGCDECAGKAGCPI,4.25
17,AEVSWEPGRREGCDWCAGKAGCPI,3.74
18,AEVSWEPGRREGCDYCAGKAGCPI,3.21
19,AEVSWEPGRREGCDFCAGKAGCPI,2.08
20,AEVSWEPGRREGCDCCAGKAGCPI,4.43
21,AEVSWEPGRREGCDLCAGKAGCPI,2.43
22,AEVSWEPGRREGCDTCAGKAGCPI,3.83

row,Variant,protein stability index
1,AEVSWEPGRREGCDMCAGKAGCPI,3.42
2,AEVSWEPGRREGCDICAGKAYCPI,3.56
3,AEVSWEPGRREGCDICAGKAICPI,2.67
4,AEVSWEPGRREGCDICAGKANCPI,2.82
5,AEVSWEPGRREGCDICAGKAPCPI,3.35
6,AEVSWEPGRREGCDICAGKADCPI,3.59
7,AEVSWEPGRREGCDICAGKACCPI,2.84
8,AEVSWEPGRREGCDICAGKAACPI,3.26
9,AEVSWEPGRREGCDICAGKARCPI,2.75
10,AEVSWEPGRREGCDICAGKASCPI,2.59
11,AEVSWEPGRREGCDICAGKALCPI,3.38
12,AEVSWEPGRREGCDICAGKAMCPI,3.01
13,AEVSWEPGRREGCDICAGKAFCPI,2.13
14,AEVSWEPGRREGCDICAGKAQCPI,4.18
15,AEVSWEPGRREGCDICAGDAGCPI,4.29
16,AEVSWEPGRREGCDICAGYAGCPI,2.24
17,AEVSWEPGRREGCDICAGHAGCPI,2.13
18,AEVSWEPGRREGCDICAGTAGCPI,2.62
19,AEVSWEPGRREGCDICAGIAGCPI,3.79
20,AEVSWEPGRREGCDICAGQAGCPI,2.97
21,AEVSWEPGRREGCDICAGGAGCPI,3.99
22,AEVSWEPGRREGCDICAGWAGCPI,1.28

row,Variant,protein stability index
1,AEVSWEPGRREGCDICAGEAGCPI,4.29
2,AEVSWEPGRREGCDICAGMAGCPI,2.48
3,AEVSWEPGRREGCDICAGNAGCPI,2
4,AEVSWEPGRREGCDICAGLAGCPI,2.3
5,AEVSWEPGRREGCDICAGFAGCPI,2.15
6,AEVSWEPGRREGCDICAPKAGCPI,3.47
7,AEVSWEPGRREGCDICADKAGCPI,4.25
8,AEVSWEPGRREGCDICAMKAGCPI,3.06
9,AEVSWEPGRREGCDICAWKAGCPI,2.74
10,AEVSWEPGRREGCDICAIKAGCPI,2.24
11,AEVSWEPGRREGCDICAFKAGCPI,2.75
12,AEVSWEPGRREGCDICASKAGCPI,3.63
13,AEVSWEPGRREGCDICACKAGCPI,2.79
14,AEVSWEPGRREGCDICAYKAGCPI,2.66
15,AEVSWEPGRREGCDICANKAGCPI,3.63
16,AEVSWEPGRREGCDICAKKAGCPI,2.7
17,AEVSWEPGRREGCDICATKAGCPI,3.28
18,AEVSWEPGRREGCDICAHKAGCPI,2.97
19,AEVSWEPGRREGCDICAAKAGCPI,3.08
20,AEVSWEPGRREGCDIVAGKAGCPI,3.67
21,AEVSWEPGRREGCDIRAGKAGCPI,4.22
22,AEVSWEPGRREGCDIKAGKAGCPI,3.86

row,Variant,protein stability index
1,AEVSWEPGRREGCDIQAGKAGCPI,4.37
2,AEVSWEPGRREGCDIWAGKAGCPI,1.6
3,AEVSWEPGRREGCDIDAGKAGCPI,3.44
4,AEVSWEPGRREGCDILAGKAGCPI,4
5,AEVSWEPGRREGCDIYAGKAGCPI,3.04
6,AEVSWEPGRREGCDITAGKAGCPI,2.97
7,AEVSWEPGRREGCDIIAGKAGCPI,3.69
8,AEVSWEPGRREGCDIFAGKAGCPI,3.58
9,AEVSWEPGRREGCDICIGKAGCPI,2.59
10,AEVSWEPGRREGCDICVGKAGCPI,3.14
11,AEVSWEPGRREGCDICSGKAGCPI,2.46
12,AEVSWEPGRREGCDICYGKAGCPI,3.57
13,AEVSWEPGRREGCDICGGKAGCPI,3.38
14,AEVSWEPGRREGCDICNGKAGCPI,3.45
15,AEVSWEPGRREGCDICLGKAGCPI,2.01
16,AEVSWEPGRREGCDICEGKAGCPI,3.78
17,AEVSWEPGRREGCDICMGKAGCPI,2.29
18,AEVSWEPGRREGCDICCGKAGCPI,3.11
19,AEVSWEPGRREGCDICFGKAGCPI,2.3
20,AEVSWEPGRREGCDICTGKAGCPI,3.58
21,AEVSWEPGRREGCDICHGKAGCPI,3.66
22,AEVSWEPGRREGCDICPGKAGCPI,3.72

row,Variant,protein stability index
1,AEVSWEPGRREGCDICRGKAGCPI,2.97
2,AEVSWEPGRREGCDICAGKAGHPI,2.9
3,AEVSWEPGRREGCDICAGKAGNPI,2.96
4,AEVSWEPGRREGCDICAGKAGEPI,3.88
5,AEVSWEPGRREGCDICAGKAGFPI,2.28
6,AEVSWEPGRREGCDICAGKAGRPI,2.32
7,AEVSWEPGRREGCDICAGKAGKPI,2.99
8,AEVSWEPGRREGCDICAGKAGYPI,2.2
9,AEVSWEPGRREGCDICAGKAGDPI,3.66
10,AEVSWEPGRREGCDICAGKAGPPI,3.34
11,AEVSWEPGRREGCDICAGKAGWPI,2.82
12,AEVSWEPGRREGCDICAGKAGMPI,3.11
13,AEVSWEPGRREGCDICAGKAGCQI,2.68
14,AEVSWEPGRREGCDICAGKAGCGI,3.82
15,AEVSWEPGRREGCDICAGKAGCEI,3.1
16,AEVSWEPGRREGCDICAGKAGCLI,2.92
17,AEVSWEPGRREGCDICAGKAGCNI,2.62
18,AEVSWEPGRREGCDICAGKAGCHI,2.61
19,AEVSWEPGRREGCDICAGKAGCII,3.05
20,AEVSWEPGRREGCDICAGKAGCTI,2.27
21,AEVSWEPGRREGCDICAGKAGCDI,3.85
22,AEVSWEPGRREGCDICAGKAGCKI,3.04

row,Variant,protein stability index
1,AEVSWEPGRREGCDICAGKAGCVI,2.18
2,AEVSWEPGRREGCDICAGKAGCWI,1.8
3,AEVSWEPGRREGCDICAGKAGCYI,1.73
4,AEVSWEPGRREGCDICAGKAGCMI,1.48
5,AEVSWEPGRREGCDICAGKAGCFI,2.04
6,AEVSWEPGRREGCDICAGKAGCAI,2.32
7,AEVSWEPGRREGCDICAGKCGCPI,4.67
8,AEVSWEPGRREGCDICAGKIGCPI,2.53
9,AEVSWEPGRREGCDICAGKKGCPI,1.5
10,AEVSWEPGRREGCDICAGKTGCPI,3.75
11,AEVSWEPGRREGCDICAGKEGCPI,2.36
12,AEVSWEPGRREGCDICAGKSGCPI,3.69
13,AEVSWEPGRREGCDICAGKDGCPI,3.5
14,AEVSWEPGRREGCDICAGKPGCPI,3.34
15,AEVSWEPGRREGCDICAGKVGCPI,2.59
16,AEVSWEPGRREGCDICAGKYGCPI,2.96
17,AEVSWEPGRREGCDICAGKLGCPI,2.48
18,AEVSWEPGRREGCDICAGKNGCPI,3.26
19,AEVSWEPGRREGCDICAGKHGCPI,3.25
20,AEVSWEPGRREGCDICAGKRGCPI,2.26
21,AEVSWEPGRREGCDICAGKFGCPI,3.1

# Variants of: B2
# Assay: as above
# Conditions: c terminus: a fixed tail appended
row,Variant,protein stability index
1,DSCCPAIIFQAMCLLICAEMYQVS,3.28
2,DSCCPAYIFQAMCLLICAEMYQVS,2.8
3,DSCCPANIFQAMCLLICAEMYQVS,2.19
4,DSCCPAHIFQAMCLLICAEMYQVS,2.75
5,DSCCPAEIFQAMCLLICAEMYQVS,1.72
6,DSCCPAFIFQAMCLLICAEMYQVS,2.49
7,DSKCPAGIFQAMCLLICAEMYQVS,3.1
8,DSHCPAGIFQAMCLLICAEMYQVS,1.02
9,DSRCPAGIFQAMCLLICAEMYQVS,2.33
10,DSACPAGIFQAMCLLICAEMYQVS,3.18
11,DSTCPAGIFQAMCLLICAEMYQVS,1.39
12,DSSCPAGIFQAMCLLICAEMYQVS,3.1
13,DSPCPAGIFQAMCLLICAEMYQVS,2.93
14,PSCCPAGIFQAMCLLICAEMYQVS,1.89
15,SSCCPAGIFQAMCLLICAEMYQVS,2.77
16,ISCCPAGIFQAMCLLICAEMYQVS,2.69
17,ASCCPAGIFQAMCLLICAEMYQVS,3.58
18,NSCCPAGIFQAMCLLICAEMYQVS,3.73
19,TSCCPAGIFQAMCLLICAEMYQVS,3.52

row,Variant,protein stability index
1,MSCCPAGIFQAMCLLICAEMYQVS,3.85
2,ESCCPAGIFQAMCLLICAEMYQVS,2.3
3,RSCCPAGIFQAMCLLICAEMYQVS,2.64
4,DTCCPAGIFQAMCLLICAEMYQVS,3.94
5,DNCCPAGIFQAMCLLICAEMYQVS,3.1
6,DWCCPAGIFQAMCLLICAEMYQVS,3.17
7,DLCCPAGIFQAMCLLICAEMYQVS,2.17
8,DPCCPAGIFQAMCLLICAEMYQVS,2.93
9,DKCCPAGIFQAMCLLICAEMYQVS,4.66
10,DICCPAGIFQAMCLLICAEMYQVS,3.54
11,DSCCPAGEFQAMCLLICAEMYQVS,1.48
12,DSCCPAGMFQAMCLLICAEMYQVS,1.95
13,DSCCPAGVFQAMCLLICAEMYQVS,3.73
14,DSCCPAGRFQAMCLLICAEMYQVS,2.55
15,DSCCPAGPFQAMCLLICAEMYQVS,1.68
16,DSCCNAGIFQAMCLLICAEMYQVS,3.01
17,DSCCIAGIFQAMCLLICAEMYQVS,2.61
18,DSCCHAGIFQAMCLLICAEMYQVS,3.17
19,DSCCKAGIFQAMCLLICAEMYQVS,2.16

row,Variant,protein stability index
1,DSCCLAGIFQAMCLLICAEMYQVS,2.87
2,DSCCAAGIFQAMCLLICAEMYQVS,1.65
3,DSCFPAGIFQAMCLLICAEMYQVS,2.94
4,DSCTPAGIFQAMCLLICAEMYQVS,2.08
5,DSCHPAGIFQAMCLLICAEMYQVS,4.64
6,DSCVPAGIFQAMCLLICAEMYQVS,2.88
7,DSCMPAGIFQAMCLLICAEMYQVS,4
8,DSCGPAGIFQAMCLLICAEMYQVS,2.06
9,DSCPPAGIFQAMCLLICAEMYQVS,2.84
10,DSCQPAGIFQAMCLLICAEMYQVS,2.56
11,DSCCPAGIAQAMCLLICAEMYQVS,2.97
12,DSCCPTGIFQAMCLLICAEMYQVS,2.9
13,DSCCPVGIFQAMCLLICAEMYQVS,3.18
14,DSCCPCGIFQAMCLLICAEMYQVS,3.25
15,DSCCPLGIFQAMCLLICAEMYQVS,2
16,DSCCPMGIFQAMCLLICAEMYQVS,4.16
17,DSCCPIGIFQAMCLLICAEMYQVS,2.76
18,DSCCPPGIFQAMCLLICAEMYQVS,2.76
19,DSCCPKGIFQAMCLLICAEMYQVS,3.98
